Experiments:
[1] = target: recombinant Factor VIIa (rFVIIa)
[2] = target: recombinant Factor VIIa (rFVIIa); assay: BLI; Octet Red, Ni-NTA biosensors, 37 °C, 1000 rpm; association 180 sec, dissociation 10 min; 1:1 model, global fit; the legend of Figure 4b says rFVIIa was immobilised

recombinant Factor VIIa (rFVIIa), sequence (P08709 whole entry): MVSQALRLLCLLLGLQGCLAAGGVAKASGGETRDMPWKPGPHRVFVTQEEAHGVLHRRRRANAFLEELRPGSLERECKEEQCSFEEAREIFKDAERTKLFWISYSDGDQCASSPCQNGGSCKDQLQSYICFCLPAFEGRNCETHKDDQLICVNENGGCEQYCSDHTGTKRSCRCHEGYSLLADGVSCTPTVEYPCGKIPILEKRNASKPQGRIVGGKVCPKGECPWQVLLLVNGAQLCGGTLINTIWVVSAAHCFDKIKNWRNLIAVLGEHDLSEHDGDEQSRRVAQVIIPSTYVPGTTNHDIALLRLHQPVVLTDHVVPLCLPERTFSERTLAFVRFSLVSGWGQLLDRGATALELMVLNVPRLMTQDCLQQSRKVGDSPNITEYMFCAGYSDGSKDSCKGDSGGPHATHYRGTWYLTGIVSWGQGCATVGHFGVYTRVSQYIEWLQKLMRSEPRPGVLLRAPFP

prothrombin time (PT) in citrated human plasma, maximal fold prolongation over normal clotting time [1]: 3 fold | Kd [2]: 6.2 nM
Binder: ALCDDPRVDRWYCQFVEG [E-76 peptide]
